Test results from PMC8673433 (ImmunoHorizons, 2021).

Legend:
[1] = target: full-length human TLR4 encoded by pBIND-TLR4 (human) (UniProt O00206); assay: two-hybrid
[2] = target: full-length human TLR4 encoded by pBIND-TLR4 (human, UniProt O00206 24-839); assay: two-hybrid
full-length human TLR4 encoded by pBIND-TLR4, sequence (O00206 24-839): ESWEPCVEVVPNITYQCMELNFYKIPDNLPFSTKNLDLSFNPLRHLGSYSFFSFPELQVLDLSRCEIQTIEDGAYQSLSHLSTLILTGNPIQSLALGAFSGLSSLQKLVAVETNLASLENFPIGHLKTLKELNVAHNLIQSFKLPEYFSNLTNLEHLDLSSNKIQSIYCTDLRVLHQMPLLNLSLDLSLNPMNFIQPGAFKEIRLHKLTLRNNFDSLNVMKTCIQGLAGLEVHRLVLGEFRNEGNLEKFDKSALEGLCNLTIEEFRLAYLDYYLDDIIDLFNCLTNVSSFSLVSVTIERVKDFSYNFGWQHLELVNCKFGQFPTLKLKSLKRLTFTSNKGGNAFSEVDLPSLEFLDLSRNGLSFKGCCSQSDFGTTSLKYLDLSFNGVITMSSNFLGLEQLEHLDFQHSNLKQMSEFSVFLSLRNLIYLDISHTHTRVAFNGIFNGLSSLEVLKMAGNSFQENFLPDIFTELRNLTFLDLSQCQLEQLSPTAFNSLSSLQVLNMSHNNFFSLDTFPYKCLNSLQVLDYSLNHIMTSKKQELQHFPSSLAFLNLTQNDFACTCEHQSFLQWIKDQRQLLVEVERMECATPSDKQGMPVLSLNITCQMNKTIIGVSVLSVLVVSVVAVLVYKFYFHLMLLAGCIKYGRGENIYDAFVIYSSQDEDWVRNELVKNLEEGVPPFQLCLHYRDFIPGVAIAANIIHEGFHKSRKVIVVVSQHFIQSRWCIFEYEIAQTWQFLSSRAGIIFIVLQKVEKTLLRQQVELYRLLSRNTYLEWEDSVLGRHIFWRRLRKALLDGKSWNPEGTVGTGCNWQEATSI

full-length human TLR4 encoded by pBIND-TLR4 (human), sequence (O00206 24-839): as above

Row | percent binding to TLR4 relative to SPA4 peptide (RLU) [1] [%] | percent binding to TLR4 relative to SPA4 peptide (RLU) [2] [%] | Molecule
1 | 74 |  | SPA4 peptide alanine mutant NYTXXXRG-12–19→AAAXXXAA encoded by pACT (mammalian two-hybrid fusion)
2 |  | 81 | GAFRYSDGTPVNYTNWYRGE [SPA4 peptide alanine mutant D-2→A encoded by pACT (mammalian two-hybrid fusion)]
